According to patent publication US6368811 (VLAAMS INTERUNIVERSITAIR INSTITUUT VOOR BIOTECHNOLOGIE, dated 2002):

Tests used:
[1] = target: T1, GST (glutathione S-transferase) itself (UniProt P08515 1-218 = GST); assay: ligand blot
T1 construct: Control; also called isolated GST-moiety

ligand blot = target: the molecule itself; assay: ligand blot
[2] = target: T2, syndecan-2 full length cytoplasmic domain fused to the Gal4 DNA-binding domain (UniProt P04386 1-147; P34741 170-201); assay: yeast two-hybrid
T2 construct: also called Gal4-syndecan bait
From the text: (§1) The yeast two-hybrid system (Chien et al, 1991; P.N.A.S., 88, 9578–9582) was used to identify the domains of sycl and the residues in the syndecan cytoplasmic domains that are responsible for the syndecan-sycl interaction. Different parts of the original clone (3p11) and of the sycl cDNA were subcloned in the pGAD10 vector (Clontech Laboratories), to code for fusions between the activating domain of Gal4 (Gal4 AD) and various full length, truncated, deleted, point-mutated, or epitope-tagged versions of sycl. […] But a requirement for paired PDZ domains (for instance two PDZ1 or two PDZ2 domains) has also been observed for the interactions of the GRIP adaptor protein with AMPA receptors 12 and the interaction of hDlg with the cytoplasmic domain of the Shaker-type K+channel.
(§2) Baits, comprising at least a cytoplasmic domain FYA (corresponds to Phe-Tyr-Ala) as C-terminal sequence of syndecans fused in frame to the DNA-binding domain of Gal4, were constructed by PCR, using the BamHI/SalI restriction sites of the pAS2 vector (Clontech Laboratories), and used to screen a human liver cDNA library (Clontech Laboratories) cloned in pGAD10. The pAS2 plasmids and library were cotransfected in CG1945 yeast cells, and positive clones were selected on triple minus plates (Leu-, Trp-, His-) and assayed for b-galactosidase activity. Positive cDNA clones were cotransfected with all four bait vectors and with the original pAS2 vector cells to confirm the interaction.

[3] = target: T3, syndecan-3 full length cytoplasmic domain fused to the Gal4 DNA-binding domain (UniProt P04386 1-147; O75056 410-442); assay: yeast two-hybrid
T3 construct: also called Gal4-syndecan bait
From the text: as §1, §2

T1 sequence (P08515 whole entry): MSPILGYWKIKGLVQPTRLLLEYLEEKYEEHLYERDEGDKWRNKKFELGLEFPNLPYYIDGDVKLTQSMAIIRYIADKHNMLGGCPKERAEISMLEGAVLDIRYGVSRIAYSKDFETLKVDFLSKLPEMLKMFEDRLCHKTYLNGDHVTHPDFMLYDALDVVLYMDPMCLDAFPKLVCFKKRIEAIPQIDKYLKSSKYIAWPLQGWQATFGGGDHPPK

B1: GST-sycl M92 (sycl sequence starting at M92) fusion protein (other)
chain: MVAPVTGNDVGIRRAEIKQGIREVILCKDQDGKIGLRLKSIDNGIFVQLVQANSPASLVGLRFGDQVLQINGENCAGWSSDKAHKVLKQAFGEKITMTIRDRPFERTITMHKDSTGHVGFIFKNGKITSIVKDSSAARNGLLTEHNICEINGQNVIGLKDSQIADILSTSGTVVTITIMPAFIFEHIIKRMAPSIMKSLMDHTIPEV
notes: Expressed in E. coli BL21; not shown: glutathione S-transferase (GST) as encoded by vector pGEX-5X-2
binding result [1]: no binding | binding result (ligand blot): no binding

B2: N-terminal domain of sycl alone fused to Gal4 activating domain (other, not shown: large carriers)
chain: MSLYPSLEDLKVDKVIQAQTAFSANPANPAILSEASAPIPHDGNLYPRLYPELSQYMGLSLNEEEIRASVAVVSGAPLQGQLVARPSSINYMVAPVTGNDVGIRRAEIKQGIR
notes: also called The N-terminal domain alone
binding result [2]: no binding | binding result [3]: no binding

B3: second PDZ domain of sycl alone fused to Gal4 activating domain (other, not shown: large carriers)
chain: PFERTITMHKDSTGHVGFIFKNGKITSIVKDSSAARNGLLTEHNICEINGQNVIGLKDSQIADILSTSGTVVTITIMPAFI
notes: also called PDZ-2 alone; either of the two PDZ domains alone
binding result [2]: no binding | binding result [3]: no binding

B4: first PDZ domain of sycl alone fused to Gal4 activating domain (other, not shown: large carriers)
chain: VGIRRAEIKQGIREVILCKDQDGKIGLRLKSIDNGIFVQLVQANSPASLVGLRFGDQVLQINGENCAGWSSDKAHKVLKQAFGEKITMTIRDR
notes: also called PDZ-1 alone; either of the two PDZ domains alone
binding result [2]: no binding | binding result [3]: no binding
